The text below walks through data of publication PMC13423832.

B1: AP-Nogo66-His, wild type (alkaline phosphatase fusion of the NOGO66 domain of reticulon-4) [human] / RTNR-FLAG-His (Nogo66 receptor) on HEK293T cells [not stated] (parent)
chain 1: RIYKGVIQAIQKSDEGHPFRAYLESEVAISEELVQKYSNSALGHVNCTIKELRRLFLVDDLVDSLK
chain 2: CPGACVCYNEPKVTTSCPQQGLQAVPVGIPAASQRIFLHGNRISHVPAASFRACRNLTILWLHSNVLARIDAAAFTGLALLEQLDLSDNAQLRSVDPATFHGLGRLHTLHLDRCGLQELGPGLFRGLAALQYLYLQDNALQALPDDTFRDLGNLTHLFLHGNRISSVPERAFRGLHSLDRLLLHQNRVAHVHPHAFRDLGRLMTLYLFANNLSALPTEALAPLRALQYLRLNDNPWVCDCRARPLWAWLQKFRGSSSEVPCSLPQRLAGRDLKRLAANDLQGCAVATGPYHPIWTGRATDEEPLGLPKCCQPDAADKASVLEPGRPASAGNALKGRVPPGDSPPGNGSGPRHINDSPFGTLPGSAEPPLTAVRPEGSEPPGFPTSGPRRRPGCSRKNRTRSHCRLGQAGSGGGGTGDSEGS

Variants of B1 are the subject of the assay. The assay can be described thus: AP (alkaline phosphatase fusion) receptor binding assay on HEK293T cells overexpressing RTNR. The conditions noted are these: with RTNR-FLAG-His (Nogo66 receptor) on HEK293T cells; RTNR OE HEK293T cells; n = 3 biological replicates, mean ± s.d.; parent: 0.00087; read off a plot.
On to chain 1 C47W, for which the response (min^-1 (absorbance/time)) came out at 0.0015.
